In the Immune Epitope Database (IEDB) one finds Kd data, which are given here for eleven sequences.

The target of assay [1] is HLA-A*01:01. As to the kind of experiment: IEDB peptide-MHC binding, purified MHC/direct/fluorescence; filed as Kd, often an IC50 or EC50 that approximates it; ≥ and ≤ were set here for values at or beyond the usual limits of such assays.
Assay [2] concerns the target HLA-A*02:01. The assay is described as above.
Assay [3] has as its target HLA-A*03:01. Described as above.
Assay [4] concerns the target HLA-A*11:01. Described as above.
Assay [5] deals with HLA-A*26:01. The assay is described as above.
Assay [6] has as its target HLA-A*31:01. The description is as above.
Assay [7] concerns the target HLA-A*69:01. The description is as above.
For assay [8], the target named is HLA-B*07:02. The assay is described as above.
In assay [9] the target is HLA-B*08:01. Described as above.
Assay [10] addresses HLA-B*15:01. Described as above.
Assay [11] has as its target HLA-B*27:05. The description is as above.
Assay [12] addresses HLA-B*40:01. Described as above.
For assay [13], the target named is HLA-B*44:02. The description is as above.
The target of assay [14] is HLA-B*58:01. Described as above.
Assay [15] has as its target HLA-A*02:50. The assay is described as follows: IEDB peptide-MHC binding, purified MHC/competitive/fluorescence; filed as Kd, often an IC50 or EC50 that approximates it; ≥ and ≤ were set here for values at or beyond the usual limits of such assays.
For assay [16], the target named is HLA-A*02:03. The description is as above. The settings on record: source organism: Homo sapiens.
Assay [17] concerns the target HLA-A*02:06. The description is as above. The conditions noted are these: source organism: Homo sapiens.
Assay [18] has as its target HLA-A*26:02. The description is as above.
In assay [19] the target is HLA-A*30:01. The description is as above. The conditions noted are these: source organism: Homo sapiens.
Assay [20] has as its target HLA-B*08:01. Described as above. The settings on record: source organism: Homo sapiens.
Assay [21] deals with HLA-B*39:01. Described as above.
In assay [22] the target is HLA-B*15:17. The assay is described as follows: IEDB peptide-MHC binding, purified MHC/direct/fluorescence; filed as Kd, often an IC50 or EC50 that approximates it; ≥ and ≤ were set here for values at or beyond the usual limits of such assays. The settings on record: source organism: Escherichia coli O157:H7.
Assay [23] deals with HLA-B*18:01. Described as above.
Assay [24] addresses HLA-B*57:01. The assay is described as above.
Assay [25] concerns the target HLA-A*11:01. The assay is described as follows: IEDB peptide-MHC binding, purified MHC/competitive/fluorescence; filed as Kd, often an IC50 or EC50 that approximates it; ≥ and ≤ were set here for values at or beyond the usual limits of such assays. The conditions noted are these: source organism: Escherichia coli str. K-12 substr. MG1655.
Assay [26] concerns the target HLA-A*68:02. Described as above. The settings on record: source organism: Escherichia coli str. K-12 substr. MG1655.
The target of assay [27] is HLA-A*68:02. The assay is described as follows: IEDB peptide-MHC binding, purified MHC/direct/fluorescence; filed as Kd, often an IC50 or EC50 that approximates it; ≥ and ≤ were set here for values at or beyond the usual limits of such assays. The conditions noted are these: source organism: Vibrio parahaemolyticus.
Assay [28] deals with HLA-B*08:02. The assay is described as above. The conditions noted are these: source organism: Vibrio parahaemolyticus RIMD 2210633.
For assay [29], the target named is HLA-B*15:09. Described as above. The settings on record: source organism: Vibrio parahaemolyticus RIMD 2210633.
Assay [30] deals with HLA-B*39:01. Described as above. The settings on record: source organism: Vibrio parahaemolyticus RIMD 2210633.
The target of assay [31] is HLA-A*26:01. As to the kind of experiment: IEDB peptide-MHC binding, purified MHC/competitive/fluorescence; filed as Kd, often an IC50 or EC50 that approximates it; ≥ and ≤ were set here for values at or beyond the usual limits of such assays. The conditions noted are these: source organism: Vibrio parahaemolyticus K5030.
Assay [32] addresses HLA-B*15:01. Described as above.
The target of assay [33] is HLA-B*40:01. The assay is described as above.
For assay [34], the target named is HLA-C*03:03. As to the kind of experiment: IEDB peptide-MHC binding, purified MHC/direct/fluorescence; filed as Kd, often an IC50 or EC50 that approximates it; ≥ and ≤ were set here for values at or beyond the usual limits of such assays.
For assay [35], the target named is HLA-A*24:03. The assay is described as above. The conditions noted are these: source organism: Yersinia pestis.
For assay [36], the target named is HLA-A*02:03. The assay is described as above. The conditions noted are these: source organism: Bacillus cereus 03BB108.
For assay [37], the target named is HLA-A*02:12. The assay is described as above. The conditions noted are these: source organism: Bacillus cereus 03BB108.
The mark [38] stands for this setting: source organism: Vibrio cholerae.
The mark [39] stands for this setting: source organism: Escherichia coli O157:H7.
Where [40] appears, read: source organism: Vibrio parahaemolyticus.
Where [41] appears, read: source organism: Vibrio parahaemolyticus RIMD 2210633.
The mark [42] stands for this setting: source organism: Vibrio parahaemolyticus K5030.
The mark [43] stands for this setting: source organism: Escherichia coli APEC O1.
Setting [44] is: source organism: Yersinia pestis.
The mark [45] stands for this setting: source organism: Escherichia coli O139:H28 str. E24377A.
The mark [46] stands for this setting: source organism: Bacillus anthracis.

A value given as a limit tells only on which side of the number the result lay.

For FLHPKHWGT, the Kd was not below 20 µM in assay [1] (setting [38]); 157 nM in assay [2] (setting [38]); not below 20 µM in [3] (setting [38]); not below 20 µM in assay [4] (setting [38]); not below 20 µM in [5] (setting [38]); not below 20 µM in assay [6] (setting [38]). Besides, the Kd in assay [7] (setting [38]) is 3480 nM; in [8] (setting [38]), not below 20 µM; in assay [9] (setting [38]), 285 nM; in assay [10] (setting [38]), not below 20 µM; in [11] (setting [38]), not below 20 µM; in assay [12] (setting [38]), not below 20 µM. In addition, the Kd is not below 20 µM in assay [13] (setting [38]), not below 20 µM in [14] (setting [38]) and not above 0.1 nM in assay [15] (source organism: Vibrio cholerae 2740-80).

For VRVCACPGR, the dissociation constant (Kd) in [16] is not below 20 µM; in [17] it was 2070 nM; in assay [18] (source organism: Homo sapiens) it was not below 20000 nM; in assay [19] it was 2330 nM; in assay [20], not below 20 µM; in [21] (source organism: Homo sapiens) it was not below 20000 nM.

As for NLPSKPVWL, the Kd in [1] (setting [39]) is not below 20 µM; in assay [2] (setting [39]), 6910 nM; in assay [3] (setting [39]) it was not below 20 µM; in assay [6] (setting [39]), not below 20 µM; in assay [8] (setting [39]) it was 7 µM; in assay [10] (setting [39]) it was not below 20 µM. The dissociation constant Kd in [22] is not below 20 µM; in assay [23] (setting [39]) it was not below 20000 nM; in assay [11] (setting [39]), not below 20 µM; in assay [24] (setting [39]), not below 20 µM; in [14] (setting [39]), not below 20 µM; in [25] it was not below 20 µM. For the same sequence, the Kd was 565 nM in assay [18] (source organism: Escherichia coli str. K-12 substr. MG1655) and 3.54 µM in assay [26].

For the sequence DMRKRIEAF, the Kd was not below 20 µM in assay [1] (setting [40]); not below 20000 nM in assay [2] (setting [40]); not below 20 µM in [4] (setting [40]); not below 20 µM in assay [27]; not below 20000 nM in assay [7] (setting [40]); not below 20 µM in assay [8] (setting [40]). The dissociation constant (Kd) in assay [9] (setting [41]) was 13 nM; in assay [28] it was 171 nM; in assay [29] it was not below 20 µM; in [23] (setting [41]), 25 nM; in assay [30], not below 20 µM; in assay [24] (setting [40]), not below 20 µM. Moreover, the equilibrium dissociation constant (Kd) is not below 20 µM in [14] (setting [40]), not below 20 µM in [31], 7.3 nM in assay [18] (setting [42]) and not below 20000 nM in assay [32] (setting [42]).

Consider HESSVSWMF, for which the Kd in [32] (setting [43]) is 670 nM; in assay [33] (setting [43]), 1.1 nM.

Take VAAHNAEAM: the Kd in [34] (source organism: Leishmania major strain Friedlin) came out at 2 nM.

In the case of FQYYGIDWV, the values for the dissociation constant Kd in [2] (setting [40]), in assay [7] (setting [40]) and in assay [15] (setting [41]) were 11.7 nM, 496 nM and not above 0.1 nM, respectively.

In the case of FMSLQSGDV, the dissociation constant (Kd) is not below 20 µM in assay [1] (setting [44]); not below 20000 nM in [2] (setting [44]); not below 20 µM in assay [3] (setting [44]); not below 20 µM in assay [4] (setting [44]); not below 20 µM in assay [35]; not below 20 µM in assay [5] (setting [44]). The Kd is not below 20 µM in assay [6] (setting [44]); 1340 nM in assay [7] (setting [44]); not below 20 µM in assay [8] (setting [44]); not below 20000 nM in assay [9] (setting [44]); not below 20 µM in assay [10] (setting [44]); not below 20 µM in assay [11] (setting [44]). The dissociation constant Kd in assay [12] (setting [44]) was not below 20 µM; in assay [13] (setting [44]), not below 20 µM; in assay [14] (setting [44]), not below 20 µM; in assay [15] (source organism: Yersinia pestis Nepal516), 2.5 nM.

Regarding LQMLGENVL, the dissociation constant Kd in assay [32] (setting [45]) was 152 nM; in assay [21] (setting [45]), 17 nM; in assay [33] (setting [45]), 836 nM.

In the case of AQMVWIHGV, the equilibrium dissociation constant (Kd) in [2] (setting [46]) is 1.3 nM; in [36], 30 nM; in assay [37], 71 nM; in [8] (setting [46]) it was not below 20 µM; in [15] (source organism: Bacillus anthracis str. A2012) it was 0.3 nM.

For the sequence VLNETTNWL, the Kd in assay [7] (source organism: West Nile virus) and in assay [34] (source organism: Japanese encephalitis virus) was not below 20000 nM throughout.

By Kd is commonly meant the equilibrium constant for the complex coming apart.
